Target: human CaV2.1 (P/Q-type) voltage-gated calcium channel (human)

## human G-protein Gβ1γ2 heterodimer (from UniProt P62873-1 1-340; P59768 1-71) (complex)
  τ activation of hCaV2.1 macroscopic current with co-expressed human Gβ1γ2, after a +150 mV prepulse: 3.26 ms
  τ activation of hCaV2.1 macroscopic current with co-expressed human Gβ1γ2, without prepulse (1.16-1.20 ms without G proteins): 10.6 ms

— paper PMC7939481
